From the nanobody polyreactivity screen of Harvey et al. (2022)

Assay: yeast display, Sf9 membrane polyspecificity reagent, FACS + sequencing; frameworks hold sequencing errors
Outline: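 A nanobody's polyreactivity label depends on the gate it was sorted from. Yeast display cells were stained with 10% biotinylated, detergent-solubilized Sf9 membrane reagent for 1 hour at 4 °C, enriched on streptavidin microbeads and sorted by FACS. The low and high (top ~1%) gates were set on anti-HA fluorescence for expression and streptavidin fluorescence for reagent binding.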

Sequence	polyreactivity (PSR sort gate)
QVQLVESGGGLVQAGGSLRLSCAASGITFQYNAMGWYRQAPGKERELVATIRRGGITKYADSVKGRFTISRDNAKNTVSLQMNSLKPEDSAVYYCAADFWYYQYPYGGGGYWGQGTQVTVSS	low polyreactivity
QVQLVESGGGLVQAGGSLRLSCAASGITFQYYAMGWYRQAPGKERELVAAITKRGGSTYYADSVKGRFTISRDNAKNTVYLQMTSLKPEETAVYYCAADLGGNSRLDYWGQGTQVTVSS	high polyreactivity
QVQLVESGGGLVQAGGSLRLSCAASGITFRCNAMGWYRQAPGKERELVASITGGTDTYYADSVKGRFTISRDNAKKTVYLQMNSLKPEASAVYYCAAPSNQYFRYKRRYYYWGQGTQVTVSS	high polyreactivity
QVQLVESGGGLVQAGGSLRLSCAASGITFRFNAMGWYRQAPGKEREFVAAITYSGDSTYYADSVKGRFTISRDNAKNTVYLQMNSLKPEDTAVYYCAADYYAISRRIFYYWGQGTQVTVSS	low polyreactivity
QVQLVESGGGLVQAGGSLRLSCAASGITFRGYAMGWYRQAPGKERELVAAISSRGGSTYYADSVKGRFTISRDNAKNTVYLQMNSLKPEDTAVYYCNAVSGLYFTYTYDYWGQGTQVTVSS	high polyreactivity
QVQLVESGGGLVQAGGSLRLSCAASGITFRGYAMGWYRQAPGTERELVAAITGSGTSTYADSVKGRFTISRDNAKNTVYLQMNILKPEDTAVYYCAADTYDPFYYGYGYWGQGTQVTVSS	low polyreactivity
QVQLVESGGGLVQAGGSLRLSCAASGITFRGYARGWYRQAPGKERELVASITNTDSTYYADSVKGRFTISRDNAKNTVYLQMNSLKPEDTAVYYCAARRGRKYGYWGQGTQVTVSS	high polyreactivity
QVQLVESGGGLVQAGGSLRLSCAASGITFRRYAMGWYRQAPGKERELVAAISRSGGSTRYADSVKGRFTISRDNAKNTVYLLMNSLKPEDTAVYYCAADGVPGRAVDYEYWGQGTQVTVSS	high polyreactivity
QVQLVESGGGLVQAGGSLRLSCAASGITFRRYAMGWYRQAPGKERELVAAITSSGGSTYYADSVKGRFSISRDNAKNTVYLQMNSLKPEDTAVYYCAARAYRVNWSSWYRSGYDYWGQGTQVTVSS	high polyreactivity
QVQLVESGGGLVQAGGSLRLSCAASGITFRTYAMGWYRQAPGKERELVAGIRTRTGSTYYADSVKGRFTISRDNAKNTVYLQMNSLKPEDTAVYYCAAKGSGYYGRQRIYSYTYDYWGQGTQVTVSS	high polyreactivity
QVQLVESGGGLVQAGGSLRLSCAASGITFRVYVMGGYRQAPGKERELVAAITSGTSTYYADSVKGRFTISRDNAKNTVYLQMNSLKPEDTAVYYCAADWDLFYAVVGFDFDYWGQGTQVTVSS	low polyreactivity
QVQLVESGGGLVQAGGSLRLSCAASGITFRWYAMGWYRQAPGKERELVAAISSSGGSTYYADSVKGRFTISRDNAKNTVYLQMNSLKPEDTAVYYCAAYTSYASDYWGQGTQVTVSS	high polyreactivity
QVQLVESGGGLVQAGGSLRLSCAASGITFRYNAMGWYRQAPGKERELVAAITFSGGSTYYADSVKGRFTISRDNAKNTVNLQMNSLKPEDTAVYYCAKLGSTSSRGNYDYWGQGTQVTVSS	low polyreactivity
QVQLVESGGGLVQAGGSLRLSCAASGITFRYYAMGWYRQAPGKERELVAAISSGSSTYYADSVKGRFTISRDNAKNTVYLQMNSLKPEDTAVYYCAARTYTTSRATTVYKRLNYWGQGTQVTVSS	high polyreactivity
QVQLVESGGGLVQAGGSLRLSCAASGITFRYYAMGWYRQAPGKERELVAAITGNGGGTYADSVKGRFTISRDNAKNTVYLQMNSLKPEVTAVYYCAADEPGLSWYDSYRYPDYGYDYWGQGTQVTVSS	low polyreactivity
QVQLVESGGGLVQAGGSLRLSCAASGITFRYYAMGWYRQAPGKERELVATISWSGGSTYYADSVKGRFTISRDNAKNTVYLQMNSLKPEDTAVYYCNADWYRSAWSKYDYWGQGTQVTVSS	high polyreactivity
QVQLVESGGGLVQAGGSLRLSCAASGITFRYYTMGWYRQAPGKERELVAVISWSGGSTYYADSVKGRFTISRDNAKNTVYLQMNSLKPEDTAVYYCAAVRRISRYDYWGQGTQVTVSS	high polyreactivity
QVQLVESGGGLVQAGGSLRLSCAASGITFSFYAMGWYRQAPGKERELVADITRGGNTNYADSVKGRFTISRDNAKNTVYLQMNSLKPEDTAVYYCNARRRGAGGYDYWGQGTQVTVSS	high polyreactivity
QVQLVESGGGLVQAGGSLRLSCAASGITFSHYAMGWYRQAPGKERELVAGITWSGGRTYYADSVKGRFTISRDNAKNTVYLQMNSLKPEDTAVYYCAPIHRTGYDMDYWGQGTQVTVSS	low polyreactivity
QVQLVESGGGLVQAGGSLRLSCAASGITFSKYAMGWYRPAPGKERELVAAISSTASTNYADSVKGRFTISRDNAKHTVYFQMNSLKPEDTAVYYCNAGLFFQWFWTYDDYWGQGTQVTVSS	low polyreactivity
QVQLVESGGGLVQAGGSLRLSCAASGITFSLYAMGWYRQAPGKERELVAAISKSGGSTYYADSVKGRFTISRDNAKNTVYLQMNSLKPEDTAVYYCAADFVSKTPWHAQDDYWGQGTQVTVSS	low polyreactivity
QVQLVESGGGLVQAGGSLRLSCAASGITFSLYVMGWYRQAPGKERELVAAISTSGGSTYYADSVKGRFTISRDNAKNTVYLQMTSLKPEDTAVYYCAAVYVLSWYVQTYDYWGQGTQVTVSS	low polyreactivity

Sequence	polyreactivity (PSR sort gate)
QVQLVESGGGLVQAGGSLRLSCAASGITFSRNAMGWYRQAPGKERELVATITSGGSTNYADSVKGRFTISRDNAKNTVYLQMNSLKPEDTAVYYCNAVWNTFISGRSYDYWGQGTQVTVSS	low polyreactivity
QVQLVESGGGLVQAGGSLRLSCAASGITFSRNVMGWYRQAPGKERELVAAISRSGGRTYYADSVKGRFTISRDTAKNTVYLQINSLKAEDTAVYYCNRDIGGTSVLDDYWGQGTQVTVSS	low polyreactivity
QVQLVESGGGLVQAGGSLRLSCAASGITFSRYAMGWYRQAPGKERELVAAISSGGSTYYADSVKGRFTISRDNAKNTVYLQMNSLIPEDTAVYYCAADGLTGSKYRATGYYWGQGTQVTVSS	high polyreactivity
QVQLVESGGGLVQAGGSLRLSCAASGITFSRYAMGWYRQAPGTERELVAAITSSGGSTYYADSVKGRFTISRDNAKNTVYLQMNSLKPEDTAVYYCAATSYYTREQYYYWGQGTQVTVSS	high polyreactivity
QVQLVESGGGLVQAGGSLRLSCAASGITFSSNTRGCYRQATGNETELVAAISSSGGSTYYADSVKGRFTISRDNAKNTFYLQINSLKPEDTAVYYCNTVRFRGWVWWEYDYWGQGTQVTVSS	high polyreactivity
QVQLVESGGGLVQAGGSLRLSCAASGITFSSYAMGWSRQAPGKERELVAAISSGGSTYYADSVKGRFTISRDNAKNTVYLQMNSLKPEDTAVYYCRPLVTLDWYKFGYWGQGTQVTVSS	low polyreactivity
QVQLVESGGGLVQAGGSLRLSCAASGITFSSYTMGWYRQAPGKERELVAVISSGGSTNYADSVKGRFTISRDNAKNTVYLQMNSLKPEETAVYYCAARRSKYIPYYGKWYYRAFDYWGQGTQVSVSS	high polyreactivity
QVQLVESGGGLVQAGGSLRLSCAASGITFSSYTMGWYRQARGKERELVAAISRTGGSTYYADSVKGRFTISRDNAKNTVYLQMNSLIPEDTAVYYCAARVAGRTLSGGDYWGQGTQVTVSS	high polyreactivity
QVQLVESGGGLVQAGGSLRLSCAASGITFSSYVMGWYRQAPGKERELDAAISRSGGITYYADSVKGRFTISRDNAKNTVYLQMNSLKPEDTAVYYCAVRYYIYRPGGYDYWGQGTQVTVSS	high polyreactivity
QVQLVESGGGLVQAGGSLRLSCAASGITFSVYAMGWYRQAPRKERELVASISSGGTSTYYADSVKGRFTISRDNAKNTVYLQMNSLKPEDTPVYYCAAYSYYTRDPYSYDYWGQGTQVTVSS	low polyreactivity
QVQLVESGGGLVQAGGSLRLSCAASGITFSYYAMGWYRQAPGKERELVAAISRTGTSTYYADSVKGRFTISRDNAKNTVYLQMNSLKPEDTAVYYCAARYYYWGQGTQVTVSS	high polyreactivity
QVQLVESGGGLVQAGGSLRLSCAASGITFSYYAMGWYRQAPGKERELVAAISWSGGTTYYADSVKGRFTISRDNAKNTVYLQMNSLKPEDTAVYYCAADGGAVGSDYWGQGTQVTVSS	high polyreactivity
QVQLVESGGGLVQAGGSLRLSCAASGITFSYYAMGWYRQAPGKERELVAAISYTSGSTYYADSVKGRFTISRDNAKNTVYLQMNSLKPEDTAGYYCAARSRWSKQFRYDYWGQGTQVTVSS	high polyreactivity
QVQLVESGGGLVQAGGSLRLSCAASGITFSYYAMGWYRQAPGKERELVATIRSSGGSTYYADSVKGRFTISRDNAKNTVYLQMNSLKPEDTAVYYCAVRLWFDYNYWGQGTQVTVSS	low polyreactivity
QVQLVESGGGLVQAGGSLRLSCAASGITFSYYTLGWYRQAPGKERELFARINSGGTTNYADSVKGRFTISRDNAKNTVYLQMNSLKPEDTAVYYCAAEWVSWRWAHKFDYWGQGTQVTVSS	high polyreactivity
QVQLVESGGGLVQAGGSLRLSCAASGITFTGYAMGWYRPAPGKERELGAAITWSSGSTYYADSVKGRFTISRDNAKNTVYLQMNSLKPEDTAVYYCAAEVNVGTLLLSVIVEDGDYWGQGTQVTVSS	low polyreactivity
QVQLVESGGGLVQAGGSLRLSCAASGITFTGYAMGWYRQAPGKERELVAAISVSTVSTYYADSVKGRFTISRDNAKNTDYLQMTSLKPEDTAVYYCNADATDSYPEKDEHDSWGQGTQVTVSS	low polyreactivity
QVQLVESGGGLVQAGGSLRLSCAASGITFTGYAMGWYRQAPGKERELVAVISETGGSTYADSVKGRFTISRDNAKNTVYLQMNSLKPEDTAVYYCAADPHDTVRHDALVELEYWGQGTQVTVSS	low polyreactivity
QVQLVESGGGLVQAGGSLRLSCAASGITFTGYAMGWYRQAPGKERELVAVISETGGSTYADSVKGRFTISRDNAKNTVYLQMNSLKREDTAVYYCAARLWWPYSTAWAKMDYWGQGTQVTVSS	low polyreactivity
QVQLVESGGGLVQAGGSLRLSCAASGITFTRYAMGWYRQAPGKEREFVAAIRRSGGNTYYADSVKGRFTISRDNAKNNVYLQRNSLKPEESAVYYCPASFRKTSPTRLVDYWGLGTQVTVSS	low polyreactivity
QVQLVESGGGLVQAGGSLRLSCAASGITFTSYVMGWYRQAPGKERELVAAIRWSGGRTYYADSVKGRFTISRDNAKITVYLQMNSLKPEDTAVYYCNRVTRSHVDYWGQGTQVTLSS	high polyreactivity
